Legend:
[1] = biological target: Lichtheimia corymbifera (Lichtheimia corymbifera); experiment: flow cytometry on fixed Lichtheimia corymbifera spores; blank 'Hu 2nd Only' median 461.38, mean 517.80
[2] = biological target: Cunninghamella bertholletiae (Cunninghamella bertholletiae); experiment: flow cytometry on fixed Cunninghamella bertholletiae spores; blank 'Hu 2nd Only' median 241.78, mean 250.81
[3] = biological target: Rhizopus delemar (Rhizopus delemar); experiment: flow cytometry on fixed Rhizopus delemar spores; blank 'Hu 2nd Only' median 565.83, mean 592.76
[4] = biological target: Mucor circinelloides (Mucor circinelloides); experiment: flow cytometry on fixed Mucor circinelloides spores; blank 'Hu 2nd Only' median 990.21, mean 1062.19
[5] = biological target: Rhizomucor (Rhizomucor (species not given)); experiment: flow cytometry on fixed Rhizomucor spores; blank 'Hu 2nd Only' median 257.20, mean 272.52

Rhizopus delemar (Rhizopus delemar), sequence (I1CFE1 18-579): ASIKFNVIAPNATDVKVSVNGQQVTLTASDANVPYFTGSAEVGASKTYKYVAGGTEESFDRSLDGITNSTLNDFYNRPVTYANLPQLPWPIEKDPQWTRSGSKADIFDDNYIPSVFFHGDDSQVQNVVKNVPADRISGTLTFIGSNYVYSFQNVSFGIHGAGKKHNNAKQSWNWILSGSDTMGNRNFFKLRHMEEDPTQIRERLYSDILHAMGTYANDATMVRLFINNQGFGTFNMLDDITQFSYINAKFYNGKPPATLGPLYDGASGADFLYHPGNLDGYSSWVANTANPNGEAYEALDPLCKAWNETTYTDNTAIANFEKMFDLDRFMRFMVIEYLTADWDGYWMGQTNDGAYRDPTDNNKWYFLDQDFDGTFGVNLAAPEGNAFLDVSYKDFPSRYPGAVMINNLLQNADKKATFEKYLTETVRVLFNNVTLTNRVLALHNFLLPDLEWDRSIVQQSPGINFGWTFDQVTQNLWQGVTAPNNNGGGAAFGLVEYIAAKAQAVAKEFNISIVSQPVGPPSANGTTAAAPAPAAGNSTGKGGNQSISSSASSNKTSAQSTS

Work on Hu Isotype IgG (antibody) yielded a Mean: FITC-A [1] of 2830, a Median: FITC-A [1] of 1170 and a Mean: FITC-A [2] of 1070. The Median: FITC-A [2] was 833, the Mean: FITC-A [3] was 1210 and the Median: FITC-A [3] was 1010. It also gave a Mean: FITC-A [4] of 2020, a Median: FITC-A [4] of 1820 and a Mean: FITC-A [5] of 1110. It also gave a Median: FITC-A [5] of 843.

Reference: patent publication US20240209070A1, “COTH3 BINDING AGENTS AND USES THEREOF” (priority 2021, published 2024)
